Non-standard residues stand in square brackets, D forms with d. No end group written: not given here. *: point of attachment. Phe(F5) = N[C@@H](Cc1c(F)c(F)c(F)c(F)c1F)C(=O)O; Desaminotyrosyl = O=C(CCc1ccc(O)cc1)*; NMeY = CN[C@@H](Cc1ccc(O)cc1)C(=O)O; Agmatine = N=C(N)NCCCCN*; NMeA = CN[C@@H](C)C(=O)O; Nle = CCCC[C@H](N)C(=O)O; Orn = NCCC[C@H](N)C(=O)O; Abu = CC[C@H](N)C(=O)O; Aoc = NCCCCCCCC(=O)O; Ava = NCCCCC(=O)O; GABA = NCCCC(=O)O
T1: GHRH receptor (membrane receptors of human anterior pituitary cells) (human, UniProt Q02643 23-423)
T1 construct: whole, on cells; Native receptor in a membrane fraction of purchased normal human pituitaries, not intact cells; also called hGHRH receptor; human pituitary membrane homogenates
T1 sequence (looked up): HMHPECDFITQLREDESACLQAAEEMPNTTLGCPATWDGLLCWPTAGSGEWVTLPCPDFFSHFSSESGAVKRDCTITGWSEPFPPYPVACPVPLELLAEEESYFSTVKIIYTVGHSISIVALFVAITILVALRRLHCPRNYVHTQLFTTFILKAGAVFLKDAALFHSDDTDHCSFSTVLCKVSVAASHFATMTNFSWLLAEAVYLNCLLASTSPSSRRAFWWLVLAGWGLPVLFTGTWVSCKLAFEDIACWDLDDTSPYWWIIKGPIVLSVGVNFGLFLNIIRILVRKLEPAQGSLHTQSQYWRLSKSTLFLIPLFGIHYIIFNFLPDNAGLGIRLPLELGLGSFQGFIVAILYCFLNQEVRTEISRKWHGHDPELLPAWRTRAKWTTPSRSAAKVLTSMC


Legend:
[1] = target: T1, GHRH receptor (membrane receptors of …); test: competition with 125I-JV-1-42, human pituitary membranes
Excerpt: Normal human pituitaries were purchased from the National Hormone and Peptide Program (A. F. Parlow, Los Angeles, County Harbor-UCLA Medical Center, Torrance, Calif.).

[2] = target: T1, GHRH receptor (membrane receptors of …); test: competition with 125I-[His1,Nle27]hGHRH(1-32)NH2, human pituitary membranes
Excerpt: Normal human pituitary was purchased from the National Hormone and Peptide Program (UCLA Medical Center, Torrance, Calif.).

Binder	IC50 [1]	Relative affinity (Binding potency) vs JI-38 [1]	IC50 [2]	Relative affinity (Binding potency) compared to JI-38 [2]	Relative affinity (Binding potency) compared to hGHRH(1-29) [2]
[NMeY][dA]DAIFTNSYR[Orn]VL[Abu]QLSAR[Orn]LLQDI[Nle]DR[Aoc]-NH2 (N-terminus assumed; SMILES CCCC[C@H](NC(=O)[C@@H](NC(=O)[C@H](CC(=O)O)NC(=O)[C@H](CCC(N)=O)NC(=O)[C@H](CC(C)C)NC(=O)[C@H](CC(C)C)NC(=O)[C@H](CCCN)NC(=O)[C@H](CCCNC(=N)N)NC(=O)[C@H](C)NC(=O)[C@H](CO)NC(=O)[C@H](CC(C)C)NC(=O)[C@H](CCC(N)=O)NC(=O)[C@H](CC)NC(=O)[C@H](CC(C)C)NC(=O)[C@@H](NC(=O)[C@H](CCCN)NC(=O)[C@H](CCCNC(=N)N)NC(=O)[C@H](Cc1ccc(O)cc1)NC(=O)[C@H](CO)NC(=O)[C@H](CC(N)=O)NC(=O)[C@@H](NC(=O)[C@H](Cc1ccccc1)NC(=O)[C@@H](NC(=O)[C@H](C)NC(=O)[C@H](CC(=O)O)NC(=O)[C@@H](C)NC(=O)[C@H](Cc1ccc(O)cc1)NC)[C@@H](C)CC)[C@@H](C)O)C(C)C)[C@@H](C)CC)C(=O)N[C@@H](CC(=O)O)C(=O)N[C@@H](CCCNC(=N)N)C(=O)NCCCCCCCC(N)=O, also called Peptide 21303) [P-21303 [N-Me-Tyr^1, D-Ala^2, Orn^12, Abu^15, Orn^21, Nle^27, Asp^28, Amc^30]hGHRH(1-30)NH2]	1.87 nM	2.32 JI-38 = 1	–	–	–
[NMeY][dA]DAI[Phe(F5)]TNSYR[Orn]VL[Abu]QLSAR[Orn]LLQDI[Nle]SR[GABA]-NHMe (also called Peptide 27414) [P-27414 [N-Me-Tyr^1, D-Ala^2, Fpa5^6, Orn^12, Abu^15, Orn^21, Nle^27, Gab^30]hGHRH(1-30)NH-CH3]	1.56 nM	2.79 JI-38 = 1	–	–	–
[NMeY][dA]DAIFTNSYR[Orn]VL[Abu]QLSAR[Orn]LLQDI[Nle]SR[GABA]-NH2 (N-terminus assumed; SMILES CCCC[C@H](NC(=O)[C@@H](NC(=O)[C@H](CC(=O)O)NC(=O)[C@H](CCC(N)=O)NC(=O)[C@H](CC(C)C)NC(=O)[C@H](CC(C)C)NC(=O)[C@H](CCCN)NC(=O)[C@H](CCCNC(=N)N)NC(=O)[C@H](C)NC(=O)[C@H](CO)NC(=O)[C@H](CC(C)C)NC(=O)[C@H](CCC(N)=O)NC(=O)[C@H](CC)NC(=O)[C@H](CC(C)C)NC(=O)[C@@H](NC(=O)[C@H](CCCN)NC(=O)[C@H](CCCNC(=N)N)NC(=O)[C@H](Cc1ccc(O)cc1)NC(=O)[C@H](CO)NC(=O)[C@H](CC(N)=O)NC(=O)[C@@H](NC(=O)[C@H](Cc1ccccc1)NC(=O)[C@@H](NC(=O)[C@H](C)NC(=O)[C@H](CC(=O)O)NC(=O)[C@@H](C)NC(=O)[C@H](Cc1ccc(O)cc1)NC)[C@@H](C)CC)[C@@H](C)O)C(C)C)[C@@H](C)CC)C(=O)N[C@@H](CO)C(=O)N[C@@H](CCCNC(=N)N)C(=O)NCCCC(N)=O, also called Peptide 25501) [P-25501 [N-Me-Tyr^1, D-Ala^2, Orn^12, Abu^15, Orn^21, Nle^27, Gab^30]hGHRH(1-30)NH2]	1.07 nM	4.07 JI-38 = 1	–	–	–
[Desaminotyrosyl][dA]DAIFTNSYR[Orn]VL[Abu]QLSAR[Orn]LLQDI[Nle]DR[Aoc]-NH2 (SMILES CCCC[C@H](NC(=O)[C@@H](NC(=O)[C@H](CC(=O)O)NC(=O)[C@H](CCC(N)=O)NC(=O)[C@H](CC(C)C)NC(=O)[C@H](CC(C)C)NC(=O)[C@H](CCCN)NC(=O)[C@H](CCCNC(=N)N)NC(=O)[C@H](C)NC(=O)[C@H](CO)NC(=O)[C@H](CC(C)C)NC(=O)[C@H](CCC(N)=O)NC(=O)[C@H](CC)NC(=O)[C@H](CC(C)C)NC(=O)[C@@H](NC(=O)[C@H](CCCN)NC(=O)[C@H](CCCNC(=N)N)NC(=O)[C@H](Cc1ccc(O)cc1)NC(=O)[C@H](CO)NC(=O)[C@H](CC(N)=O)NC(=O)[C@@H](NC(=O)[C@H](Cc1ccccc1)NC(=O)[C@@H](NC(=O)[C@H](C)NC(=O)[C@H](CC(=O)O)NC(=O)[C@@H](C)NC(=O)CCc1ccc(O)cc1)[C@@H](C)CC)[C@@H](C)O)C(C)C)[C@@H](C)CC)C(=O)N[C@@H](CC(=O)O)C(=O)N[C@@H](CCCNC(=N)N)C(=O)NCCCCCCCC(N)=O, also called Peptide 21300) [P-21300 [Dat^1, D-Ala^2, Orn^12, Abu^15, Orn^21, Nle^27, Asp^28, Amc^30]hGHRH(1-30)NH2]	3.61 nM	1.2 JI-38 = 1	–	–	–
[NMeY][dA]DAIFTNSYR[Orn]VL[Abu]QLSAR[Orn]LLQDI[Nle]DR-NHEt (also called MR-421; Peptide 28421) [P-28421 [N-Me-Tyr^1, D-Ala^2, Orn^12, Abu^15, Orn^21, Nle^27, Asp^28]hGHRH(1-29)NH-CH2-CH3]	1.47 nM	2.96 JI-38 = 1	3.05 nM	0.9 JI-38 = 1	2.5 hGHRH(1-29)NH2 = 1
[NMeY][dA]DAIFTNSYR[Orn]VL[Abu]QLSAR[Orn]LLQDI[Nle]D[Agmatine] (also called Peptide 20367) [P-20367 [N-Me-Tyr^1, D-Ala^2, Orn^12, Abu^15, Orn^21, Nle^27, Asp^28, Agm^29]hGHRH(1-29)NH2]	1.7 nM	2.56 JI-38 = 1	1.09 nM	2.51 JI-38 = 1	7.01 hGHRH(1-29)NH2 = 1
[Desaminotyrosyl][dA]DAIFTNSYR[Orn]VL[Abu]QLSAR[Orn]LLQDI[Nle]DR-NHMe (SMILES CCCC[C@H](NC(=O)[C@@H](NC(=O)[C@H](CC(=O)O)NC(=O)[C@H](CCC(N)=O)NC(=O)[C@H](CC(C)C)NC(=O)[C@H](CC(C)C)NC(=O)[C@H](CCCN)NC(=O)[C@H](CCCNC(=N)N)NC(=O)[C@H](C)NC(=O)[C@H](CO)NC(=O)[C@H](CC(C)C)NC(=O)[C@H](CCC(N)=O)NC(=O)[C@H](CC)NC(=O)[C@H](CC(C)C)NC(=O)[C@@H](NC(=O)[C@H](CCCN)NC(=O)[C@H](CCCNC(=N)N)NC(=O)[C@H](Cc1ccc(O)cc1)NC(=O)[C@H](CO)NC(=O)[C@H](CC(N)=O)NC(=O)[C@@H](NC(=O)[C@H](Cc1ccccc1)NC(=O)[C@@H](NC(=O)[C@H](C)NC(=O)[C@H](CC(=O)O)NC(=O)[C@@H](C)NC(=O)CCc1ccc(O)cc1)[C@@H](C)CC)[C@@H](C)O)C(C)C)[C@@H](C)CC)C(=O)N[C@@H](CC(=O)O)C(=O)N[C@@H](CCCNC(=N)N)C(=O)NC) [P-27400 [Dat^1, D-Ala^2, Orn^12, Abu^15, Orn^21, Nle^27, Asp^28]hGHRH(1-29)NH-CH3]	3.35 nM	1.3 JI-38 = 1	–	–	–
[NMeY][dA]DAI[Phe(F5)]TNSYR[Orn]VL[Abu]QLSAR[Orn]LLQDI[Nle]D[Agmatine] (also called Peptide 20359) [P-20359 [N-Me-Tyr^1, D-Ala^2, Fpa5^6, Orn^12, Abu^15, Orn^21, Nle^27, Asp^28, Agm^29]hGHRH(1-29)NH2]	3.05 nM	1.43 JI-38 = 1	–	–	–

Results, then the binder that gave them:

IC50 [1]	Relative affinity (Binding potency) vs JI-38 [1]	IC50 [2]	Relative affinity (Binding potency) compared to JI-38 [2]	Relative affinity (Binding potency) compared to hGHRH(1-29) [2]	Binder
0.71 nM	6.12 JI-38 = 1	0.98 nM	2.8 JI-38 = 1	7.81 hGHRH(1-29)NH2 = 1	[NMeY][dA]DAIFTQSYR[Orn]VL[Abu]QLSAR[Orn]LLQDI[Nle]DR[Ava]-NH2 (N-terminus assumed; SMILES CCCC[C@H](NC(=O)[C@@H](NC(=O)[C@H](CC(=O)O)NC(=O)[C@H](CCC(N)=O)NC(=O)[C@H](CC(C)C)NC(=O)[C@H](CC(C)C)NC(=O)[C@H](CCCN)NC(=O)[C@H](CCCNC(=N)N)NC(=O)[C@H](C)NC(=O)[C@H](CO)NC(=O)[C@H](CC(C)C)NC(=O)[C@H](CCC(N)=O)NC(=O)[C@H](CC)NC(=O)[C@H](CC(C)C)NC(=O)[C@@H](NC(=O)[C@H](CCCN)NC(=O)[C@H](CCCNC(=N)N)NC(=O)[C@H](Cc1ccc(O)cc1)NC(=O)[C@H](CO)NC(=O)[C@H](CCC(N)=O)NC(=O)[C@@H](NC(=O)[C@H](Cc1ccccc1)NC(=O)[C@@H](NC(=O)[C@H](C)NC(=O)[C@H](CC(=O)O)NC(=O)[C@@H](C)NC(=O)[C@H](Cc1ccc(O)cc1)NC)[C@@H](C)CC)[C@@H](C)O)C(C)C)[C@@H](C)CC)C(=O)N[C@@H](CC(=O)O)C(=O)N[C@@H](CCCNC(=N)N)C(=O)NCCCCC(N)=O, also called MR-326; Peptide 22326) [P-22326 [N-Me-Tyr^1, D-Ala^2, Gln^8, Orn^12, Abu^15, Orn^21, Nle^27, Asp^28, Apa^30]hGHRH(1-30)NH2]
0.86 nM	5.06 JI-38 = 1	–	–	–	[Desaminotyrosyl][dA]DAIFT[NMeA]SYR[Orn]VL[Abu]QLSAR[Orn]LLQDI[Nle]D[Agmatine] (SMILES CCCC[C@H](NC(=O)[C@@H](NC(=O)[C@H](CC(=O)O)NC(=O)[C@H](CCC(N)=O)NC(=O)[C@H](CC(C)C)NC(=O)[C@H](CC(C)C)NC(=O)[C@H](CCCN)NC(=O)[C@H](CCCNC(=N)N)NC(=O)[C@H](C)NC(=O)[C@H](CO)NC(=O)[C@H](CC(C)C)NC(=O)[C@H](CCC(N)=O)NC(=O)[C@H](CC)NC(=O)[C@H](CC(C)C)NC(=O)[C@@H](NC(=O)[C@H](CCCN)NC(=O)[C@H](CCCNC(=N)N)NC(=O)[C@H](Cc1ccc(O)cc1)NC(=O)[C@H](CO)NC(=O)[C@H](C)N(C)C(=O)[C@@H](NC(=O)[C@H](Cc1ccccc1)NC(=O)[C@@H](NC(=O)[C@H](C)NC(=O)[C@H](CC(=O)O)NC(=O)[C@@H](C)NC(=O)CCc1ccc(O)cc1)[C@@H](C)CC)[C@@H](C)O)C(C)C)[C@@H](C)CC)C(=O)N[C@@H](CC(=O)O)C(=O)NCCCCNC(=N)N, also called Peptide 20357) [P-20357 [Dat^1, D-Ala^2, N-Me-Ala^8, Orn^12, Abu^15, Orn^21, Nle^27, Asp^28, Agm^29]hGHRH(1-29)NH2]
0.83 nM	5.24 JI-38 = 1	1.28 nM	2.14 JI-38 = 1	5.98 hGHRH(1-29)NH2 = 1	[NMeY][dA]DAIFTTSYR[Orn]VL[Abu]QLSAR[Orn]LLQDI[Nle]DR-NHMe (also called MR-410; Peptide 27410) [P-27410 [N-Me-Tyr^1, D-Ala^2, Thr^8, Orn^12, Abu^15, Orn^21, Nle^27, Asp^28]hGHRH(1-29)NH-CH3]
1.06 nM	4.1 JI-38 = 1	1.01 nM	2.71 JI-38 = 1	7.57 hGHRH(1-29)NH2 = 1	[NMeY][dA]DAIFTNSYR[Orn]VL[Abu]QLSAR[Orn]LLQDI[Nle]DR-NHMe (also called MR-409; Peptide 27409) [P-27409 [N-Me-Tyr^1, D-Ala^2, Orn^12, Abu^15, Orn^21, Nle^27, Asp^28]hGHRH(1-29)NH-CH3]

— US20140179604A1 (U S A REPRESENTED BY THE DEPARTMENT OF VETERANS AFFAIRS, published 2014)
